These results are taken from US20240301030A1.

The target of assay [1] is SORLA with C-terminal fusion of the C-terminal fragment of venus fluorescent protein (human) (UniProt Q92673). Briefly: cell-based or functional assay.
Assay [2] addresses full-length SORLA with C-terminal GFP-tag (human) (UniProt Q92673). Briefly: cell-based or functional assay.

Consider “SORLA with C-terminal fusion of the N-terminal fragment of venus fluorescent protein, Q92673 82-2214”, for which the Mander's coefficient, overlap between the green venus signal specific for SORLA dimers and the total SORLA pool in assay [1] amounted to 0.37.
Regarding “full-length SORLA with C-terminal FLAG-tag, Q92673 82-2214”, the Mander's coefficient, co-localization between the PLA signal (representing SORLA dimers) and SORLA-GFP (representing both monomers and dimers) in assay [2] is 0.35.
